The record followed here is article PMC6502846.

The target of assay [1] is C5b-8 initiator complex, comprised of C5b6 in complex with C7 and C8 (human) (UniProt P01031). Put plainly: rapid atomic force microscopy imaging; supported bilayers of E. coli lipid extract on mica; proteins injected one after the other in situ without wash steps, 80 nM C5b6, C7 and C8, 1.4 µM C9; 30 °C; 6.5 s per frame; 20 mM HEPES, 120 mM NaCl, pH 7.4; chamber passivated with BSA.

The target in assay [2] is C5b-8(C9)n (1 ≤ n < 18) (human) (UniProt P01031). The description is as above.

C9, sequence (P02748 22-559): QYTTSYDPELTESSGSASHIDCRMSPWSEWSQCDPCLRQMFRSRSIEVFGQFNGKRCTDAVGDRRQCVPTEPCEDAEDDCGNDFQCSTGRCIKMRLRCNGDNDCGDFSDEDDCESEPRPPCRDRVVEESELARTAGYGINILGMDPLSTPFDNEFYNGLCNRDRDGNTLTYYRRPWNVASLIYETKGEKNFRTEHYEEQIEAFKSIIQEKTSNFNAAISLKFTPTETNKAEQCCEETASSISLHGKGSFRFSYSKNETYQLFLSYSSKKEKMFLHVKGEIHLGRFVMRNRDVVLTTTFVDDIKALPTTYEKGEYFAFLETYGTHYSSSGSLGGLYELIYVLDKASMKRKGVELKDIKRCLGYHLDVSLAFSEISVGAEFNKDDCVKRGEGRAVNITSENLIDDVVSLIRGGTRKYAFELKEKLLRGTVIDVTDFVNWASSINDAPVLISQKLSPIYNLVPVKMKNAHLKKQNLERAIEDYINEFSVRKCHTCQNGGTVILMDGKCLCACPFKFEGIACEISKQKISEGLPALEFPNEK

For “C9 (from UniProt P02748 22-559) (natural protein)”, in assay [1], the characteristic initiation time τ init stood at 912 s and the association rate constant (kon) is 780 M⁻¹ s⁻¹. Also, in assay [2], the kon is 108000 M⁻¹ s⁻¹; the τ olig, time to add 17 copies of C9 after the initiation event was determined as 112 s; the τ+, average time per addition of each of the remaining 17 C9 subunits is 6.6 s.
